Test results published in patent US20240301385, “DNA MODIFYING ENZYMES AND ACTIVE FRAGMENTS AND VARIANTS THEREOF AND METHODS OF USE” (LIFEEDIT THERAPEUTICS, INC., published 2024).

T1: APG00868-L16-nAPG07433.1 (synthetic)
T1 chain: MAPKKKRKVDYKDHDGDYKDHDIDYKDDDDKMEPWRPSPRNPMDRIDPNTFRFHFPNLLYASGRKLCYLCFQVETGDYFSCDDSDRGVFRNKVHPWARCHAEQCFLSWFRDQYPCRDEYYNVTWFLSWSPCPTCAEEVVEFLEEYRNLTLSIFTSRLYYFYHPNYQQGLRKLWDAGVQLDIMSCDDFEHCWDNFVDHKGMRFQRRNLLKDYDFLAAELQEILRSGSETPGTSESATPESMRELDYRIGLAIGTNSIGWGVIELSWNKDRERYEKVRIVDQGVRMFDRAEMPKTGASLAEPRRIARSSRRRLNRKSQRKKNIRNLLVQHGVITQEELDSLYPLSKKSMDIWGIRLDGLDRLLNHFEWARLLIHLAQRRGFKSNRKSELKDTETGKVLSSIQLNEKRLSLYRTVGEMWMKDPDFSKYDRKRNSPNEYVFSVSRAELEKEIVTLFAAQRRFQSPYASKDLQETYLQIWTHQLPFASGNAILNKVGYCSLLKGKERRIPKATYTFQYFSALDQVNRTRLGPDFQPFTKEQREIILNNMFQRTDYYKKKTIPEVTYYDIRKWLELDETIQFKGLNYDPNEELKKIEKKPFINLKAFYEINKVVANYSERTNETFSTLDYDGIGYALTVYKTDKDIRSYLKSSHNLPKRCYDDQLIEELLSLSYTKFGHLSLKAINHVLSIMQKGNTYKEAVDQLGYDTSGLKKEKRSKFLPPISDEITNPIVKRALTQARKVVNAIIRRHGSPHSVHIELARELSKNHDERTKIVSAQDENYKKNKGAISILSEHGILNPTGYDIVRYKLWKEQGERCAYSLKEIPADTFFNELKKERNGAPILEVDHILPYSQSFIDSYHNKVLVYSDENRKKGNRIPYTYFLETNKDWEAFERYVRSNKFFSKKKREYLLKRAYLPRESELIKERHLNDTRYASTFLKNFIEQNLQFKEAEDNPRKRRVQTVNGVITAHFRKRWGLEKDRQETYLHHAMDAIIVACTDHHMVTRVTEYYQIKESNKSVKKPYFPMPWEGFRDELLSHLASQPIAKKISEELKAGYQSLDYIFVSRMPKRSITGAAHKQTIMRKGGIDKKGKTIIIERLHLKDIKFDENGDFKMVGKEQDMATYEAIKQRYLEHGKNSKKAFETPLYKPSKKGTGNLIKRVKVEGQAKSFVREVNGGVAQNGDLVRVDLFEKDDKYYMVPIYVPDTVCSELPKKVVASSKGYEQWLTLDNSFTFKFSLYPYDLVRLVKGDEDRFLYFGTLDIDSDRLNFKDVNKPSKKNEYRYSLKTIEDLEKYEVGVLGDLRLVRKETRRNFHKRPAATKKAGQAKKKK

B1: SGN000169 sgRNA ; SGN000169 target (ssRNA ; dsDNA)
RNA: CACAUCUCGAGCAAGACGUUGUCAUAGUUCCAUUAAAGCCAAAAGUGGCUUUGAUGUUUCUAUGAUAAGGGUUUCGACCCGUGGCGUCGGGGAUCGCCUGCCCAUUGAAAUGGGCUUCUCCCCAUUUAUU
DNA 1: CACATCTCGAGCAAGACGTT
DNA 2: AACGTCTTGCTCGAGATGTG
B2: SGN000930 sgRNA ; SGN000930 target (ssRNA ; dsDNA)
RNA: GAACAACUCAAAUGGAAAUGAAUAUGUCAUAGUUCCAUGAAAGCCAAAAGUGGCUUUGAUGUUUCUAUGAUAAGGGUUUCGGCCCGUGGCGUCGGGGAUCGCCUGCCCAUUCCGAUGGGCUUCUCCCCAUUUAUU
DNA 1: GAACAACTCAAATGGAAATGAATAT
DNA 2: ATATTCATTTCCATTTGAGTTGTTC
B3: SGN000929 sgRNA ; SGN000929 target (ssRNA ; dsDNA)
RNA: AUCUGGAGGGAACUUACAGCAUAUGGUCAUAGUUCCAUGAAAGCCAAAAGUGGCUUUGAUGUUUCUAUGAUAAGGGUUUCGGCCCGUGGCGUCGGGGAUCGCCUGCCCAUUCCGAUGGGCUUCUCCCCAUUUAUU
DNA 1: ATCTGGAGGGAACTTACAGCATATG
DNA 2: CATATGCTGTAAGTTCCCTCCAGAT
B4: SGN001101 sgRNA ; SGN001101 target (ssRNA ; dsDNA)
RNA: AUAUUUUCUUUAAUGGUGCCAGGCAGUCAUAGUUCCAUUAAAGCCAAAAGUGGCUUUGAUGUUUCUAUGAUAAGGGUUUCGACCCGUGGCGUCGGGGAUCGCCUGCCCAUUGAAAUGGGCUUCUCCCCAU
DNA 1: ATATTTTCTTTAATGGTGCCAGGCA
DNA 2: TGCCTGGCACCATTAAAGAAAATAT

Key:
Test in all cases: cell_activity; HEK293FT; PAM SEQ 152
Settings in all cases: tags: SV40 NLS, 3xFLAG N-term; nucleoplasmin NLS C-term
[1] = biological target: APG05840.1-L16-nAPG07433.1 (truncated deaminase) (synthetic)
Protocol: (§1) 500 ng of plasmid comprising an expression cassette comprising a coding sequence for each fusion protein shown in Table 3 and 500 ng of plasmid comprising an expression cassette encoding an sgRNA shown in Table 4 were co-transfected into HEK293FT cells at 75-90% confluency in 24-well plates using Lipofectamine 2000 reagent (Life Technologies). Cells were then incubated at […] for 72 h. Following incubation, genomic DNA was then extracted using NucleoSpin 96 Tissue (Macherey-Nagel) following the manufacturer's protocol. The genomic region flanking the targeted genomic site was PCR amplified using the primers in Table 4 and products were purified using ZR-96 DNA Clean and Concentrator (Zymo Research) following the manufacturer's protocol. The purified PCR products were then sent for Next Generation Sequencing on Illumina MiSeq (2×250). Results were analyzed for INDEL formation or introduction of % specific cytosine mutations.
(§2) The position of each nucleotide in the target sequence was determined. “C17” indicates, for example, a cytosine at position 17 of the target sequence. The position of each nucleotide in the target sequence was determined by numbering the first nucleotide in the target sequence closest to the PAM as position 1, and the position number increases in the 3′ direction away from the PAM sequence.

[2] = biological target: T1, APG00868-L16-nAPG07433.1
Protocol: as §1, §2

[3] = biological target: APG05840-L16-nAPG07433.1 (synthetic)
Protocol: as §1, §2

Row | Binder | activity [1] [% mutated reads] | activity [2] [% mutated reads] | activity [3] [% mutated reads]
1 | B1 | 30.2 | 16.4 | –
2 | B2 | – | – | 22.4
3 | B3 | 22.3 | 20.6 | 27.7
4 | B4 | 23.8 | 24.4 | 24.3
